The results in this text go back to the Human Domainome abundance scans (Beltran et al. 2025).

B1: POU domain, class 3, transcription factor 3, residues 408 to 463; numbered along this chain, P20264 (parent)
chain: KKRTSIEVSVKGALESHFLKCPKPSAQEITNLADSLQLEKEVVRVWFCNRRQKEKR

± gives the uncertainty stated by the source.

The series covers variants of B1. Description: abundance fitness (aPCA) (normalised: wild type 0, dead -1); higher = more abundant; growth selection in yeast, the domain comes from the species named. The conditions noted are these: Homo sapiens.
As to V42F, the abundance fitness was -0.056 ± 0.13.
To V42I belongs -0.107 ± 0.11; to V42Q, -0.016 ± 0.12; to V42C, -0.172 ± 0.14.
To V42A belongs 0.003 ± 0.076.
Under D34N stands 0.143 ± 0.12; under K2R, -0.086 ± 0.081; under K2N, -0.094 ± 0.14.
With K2V, the abundance fitness was -0.048 ± 0.1.
To K2C belongs -0.332 ± 0.2.
To K2F belongs 0.056 ± 0.16.
To K2A belongs -0.13 ± 0.12; to K2W, -0.321 ± 0.12.
On to K2H, for which the abundance fitness is -0.38 ± 0.36.
To K2P belongs -0.305 ± 0.15; to K11C, -0.141 ± 0.094; to K11R, -0.045 ± 0.067.
Under K11F stands -0.186 ± 0.12.
In the case of K11V, the abundance fitness is -0.085 ± 0.073.
Under K11I stands -0.006 ± 0.11.
Under K11Y stands 0.067 ± 0.12.
Under L19V stands -0.075 ± 0.066; under L19A, -0.029 ± 0.086.
On to L19R, for which the abundance fitness was -0.024 ± 0.059.
With L19M, the abundance fitness was 0.033 ± 0.099.
With L19E, the abundance fitness is -0.086 ± 0.1.
Regarding L19N, the abundance fitness is 0.014 ± 0.13.
Turning to R44G, the abundance fitness was -0.165 ± 0.49.
Under R44E stands 0.213 ± 0.29; under V10K, -0.032 ± 0.13; under V10E, 0.154 ± 0.13.
Under V10Y stands -0.129 ± 0.2; under V10D, 0.176 ± 0.15.
To V10P belongs -0.472 ± 0.13; to V10F, -0.291 ± 0.15.
With S16P, the abundance fitness was -0.441 ± 0.13.
To S16N belongs -0.044 ± 0.17; to S16C, -0.086 ± 0.12; to S16T, -0.067 ± 0.13.
To S16L belongs -0.106 ± 0.084.
Turning to N31Y, the abundance fitness is -0.009 ± 0.098.
Turning to N31S, the abundance fitness was -0.033 ± 0.038.
Under N49P stands -0.881 ± 0.2.
With N49Y, the abundance fitness is -0.381 ± 0.2.
To N49W belongs -0.295 ± 0.088; to N49H, -0.034 ± 0.15.
To N49M belongs -0.274 ± 0.11.
Regarding N49D, the abundance fitness was -0.177 ± 0.28.
N49I: the abundance fitness was -0.151 ± 0.14.
Under K40I stands 0.048 ± 0.16; under K40W, -0.073 ± 0.089.
To K40S belongs 0.016 ± 0.084.
For K40R, the abundance fitness was -0.06 ± 0.071.
In the case of K40E, the abundance fitness turned out to be 0.077 ± 0.11.
To K40T belongs -0.076 ± 0.12; to F47R, -1.07 ± 0.29; to F47D, -0.295 ± 0.4.
As for F47S, the abundance fitness is -0.442 ± 0.34.
Under R3Q stands -0.217 ± 0.13; under R3P, -0.2 ± 0.13.
Under R3L stands 0.055 ± 0.087; under R3M, 0.045 ± 0.11; under R3C, -0.415 ± 0.15.
As to Q27H, the abundance fitness is -0.123 ± 0.12.
Regarding Q27P, the abundance fitness is -0.279 ± 0.084.
To Q27Y belongs -0.195 ± 0.15; to Q37D, 0 ± 0.11.
To Q37G belongs 0.013 ± 0.059.
To Q37Y belongs -0.342 ± 0.16.
With Q37W, the abundance fitness was -0.374 ± 0.092.
To Q37L belongs -0.188 ± 0.063; to Q37C, -0.156 ± 0.11; to Q37E, -0.042 ± 0.097.
In the case of Q37H, the abundance fitness is -0.034 ± 0.14.
Under Q37N stands -0.037 ± 0.13.
To I29H belongs -0.997 ± 0.41.
As for I29V, the abundance fitness is -0.204 ± 0.08.
To I29P belongs -0.871 ± 0.21; to I29Q, -0.822 ± 0.15.
To I29E belongs -0.301 ± 0.11.
On to I29R, for which the abundance fitness is -0.859 ± 0.097.
As for I29D, the abundance fitness was -0.871 ± 0.24.
Under Q52P stands -0.705 ± 0.14; under Q52I, -0.186 ± 0.16.
For Q52R, the abundance fitness is -0.138 ± 0.069.
To Q52T belongs -0.227 ± 0.13; to Q52K, -0.112 ± 0.14; to Q52N, -0.17 ± 0.14.
Consider Q52M, for which the abundance fitness is -0.194 ± 0.15.
For the variant Q52D, the abundance fitness was 0.034 ± 0.12.
Under Q52W stands -0.185 ± 0.1.
To Q52A belongs 0.041 ± 0.081; to E54C, -0.366 ± 0.14; to E54S, -0.365 ± 0.081.
On to E54M, for which the abundance fitness was -0.148 ± 0.15.
To E54V belongs -0.252 ± 0.075.
Under E54T stands -0.281 ± 0.11; under E54K, -0.658 ± 0.15.
E54D: the abundance fitness worked out at 0.058 ± 0.11.
E54P: the abundance fitness is -0.543 ± 0.15.
In the case of E41M, the abundance fitness was -0.534 ± 0.1.
On to E41Q, for which the abundance fitness is -0.414 ± 0.14.
To E41R belongs -0.352 ± 0.057; to E41C, -0.54 ± 0.1; to E41P, -0.933 ± 0.17.
Under E41G stands -0.305 ± 0.052; under E41N, -0.318 ± 0.13.
Under E41A stands -0.344 ± 0.072; under T4K, -0.142 ± 0.12.
As to T4H, the abundance fitness was -0.405 ± 0.23.
Under T4D stands -0.279 ± 0.14; under T4W, -0.572 ± 0.11; under T4M, -0.064 ± 0.08.
As for A33E, the abundance fitness is -0.964 ± 0.21.
To A33C belongs -0.515 ± 0.11.
To A33R belongs -0.989 ± 0.087; to A33I, -0.864 ± 0.17.
Under A33W stands -0.878 ± 0.12; under A33S, -0.052 ± 0.078; under E15R, -1.03 ± 0.24.
Regarding E15M, the abundance fitness was -0.713 ± 0.4.
As for E15A, the abundance fitness is -0.858 ± 0.28.
Under E15L stands -0.599 ± 0.19; under L32P, -0.935 ± 0.19.
Under L32W stands -0.967 ± 0.17; under L32G, -0.88 ± 0.1.
Under L32Q stands -0.923 ± 0.16.
As to L32I, the abundance fitness worked out at 0.187 ± 0.17.
To L32H belongs -0.652 ± 0.16.
L32T: the abundance fitness was -0.78 ± 0.12.
Under L32D stands -1.03 ± 0.14.
Under P24D stands -0.802 ± 0.17; under P24E, -0.871 ± 0.17.
To P24L belongs -0.881 ± 0.099.
Turning to P24C, the abundance fitness is -0.83 ± 0.19.
On to P24Q, for which the abundance fitness is -0.842 ± 0.2.
Turning to P24A, the abundance fitness is -0.778 ± 0.14.
To P24M belongs -0.867 ± 0.16; to L14F, -0.899 ± 0.29; to L14G, -0.958 ± 0.083.
L14P: the abundance fitness is -1 ± 0.18.
To L14E belongs -1.11 ± 0.16; to L14Y, -0.815 ± 0.18; to L14N, -1.01 ± 0.18.
To L14W belongs -1.01 ± 0.12.
Under S35M stands -0.133 ± 0.11.
As to S35P, the abundance fitness was -0.76 ± 0.14.
Under S35G stands -0.194 ± 0.077.
As to S35I, the abundance fitness is -0.122 ± 0.11.
Under S35T stands -0.07 ± 0.098; under S35H, -0.048 ± 0.16; under S35C, -0.079 ± 0.14.
To S9R belongs -0.018 ± 0.092; to S9L, -0.206 ± 0.11; to S9F, -0.285 ± 0.16.
Under S9N stands 0.166 ± 0.17; under S9E, 0.072 ± 0.11; under S9A, 0.054 ± 0.088.
Regarding S9P, the abundance fitness was -0.068 ± 0.18.
Turning to S9K, the abundance fitness turned out to be 0.01 ± 0.15.
To S9Q belongs 0.067 ± 0.36; to S9D, 0.038 ± 0.14; to V45H, 0.103 ± 0.11.
Turning to V45L, the abundance fitness was -0.042 ± 0.074.
Under V45W stands -0.162 ± 0.087.
Under V45K stands -0.024 ± 0.096; under V45N, -0.206 ± 0.14.
